The target of assay [1] is T1, C domain of human CD33 (human, UniProt P20138 140-259, limits assumed).
T1 construct: recombinant C domain
As to the kind of experiment: SPR, Fab captured, 37C. A general note: In SPR one partner is held on a chip, and binding of the other changes the refractive index at the surface.
Procedure: (§1) Kinetics and affinity of a series of Fab fragments of anti-CD33 antibodies with different CD33 variants (human CD33 ECD, cyno CD33 ECD, V-domain of human CD33, C-domain or human CD33 and selected CD33 SNPs) were assessed by surface plasmon resonance using Biacore 8K instrument (GE Healthcare). Anti-Fab antibody was immobilized on a CMS chip using standard amine coupling chemistry. CD33 FABs were captured on the anti-Fab chip at a density of ˜100 RU. Solutions containing different concentrations of soluble monomeric CD33 or its domains were injected over the captured FABs and control surfaces at 30 μl/min at 37° C. Surfaces were regenerated between cycles by quick injection of 10 mM glycine, pH 1.8. To obtain kinetic rate constants double-referenced data were fit to a 1:1 interaction model using Biacore 8K Evaluation software (GE Healthcare). The equilibrium binding constant KD was determined by the ratio of binding rate constants kd/kₐ.
The binding interface between the Fab fragment of each CD33 antibody to CD33 was mapped.

Assay [2] deals with T2, human CD33 extracellular domain (human, UniProt P20138 18-259).
T2 construct: soluble monomeric ECD; also called human CD33 ECD; hCD33
As to the kind of experiment: SPR, Fab captured, 37C.

Assay [3] addresses T3, cyno CD33 extracellular domain (Cynomolgus/Rhesus (cyno)).
T3 construct: soluble monomeric ECD; also called cyno CD33 ECD
As to the kind of experiment: SPR, Fab captured, 37C.

Assay [4] addresses T2, human CD33 extracellular domain. As to the kind of experiment: SPR, Fab captured, 37C. This is another data set of the same source.
Procedure: as §1
The target of assay [5] is T4, V domain of human CD33 (human, UniProt P20138 18-139, limits assumed).
T4 construct: recombinant, fully glycosylated V domain; also called Human CD33 V domain
As to the kind of experiment: SPR, Fab captured, 37C.
Procedure: as §1

Assay [6] concerns the target T4, V domain of human CD33. As to the kind of experiment: SPR, Fab captured, 37C. This is another data set of the same source.
Procedure: as §1
(§2) The ability of anti-CD33 antibodies to recognize glycosylated CD33 was assayed. […] De-glycosylation status was confirmed by a shift on SDS-PAGE and MS.
Assay [7] addresses T5, deglycosylated V domain of human CD33 (human, UniProt P20138 18-139, limits assumed, N-glycans removed by PNGase).
T5 construct: V domain deglycosylated by PNGase before testing; also called deglycosylated V CD33
As to the kind of experiment: SPR, Fab captured, 37C.
Procedure: as §1, §2

The target of assay [8] is T2, human CD33 extracellular domain. As to the kind of experiment: SPR, Fab captured, 37C. The source holds these as a separate data set.
Procedure: as §1
(§3) Affinity of 29 Fab fragments binding to human and cyno CD33 ECD were assayed by Biacore analysis.
Assay [9] has the same target. As to the kind of experiment: SPR, Fab captured, 37C. The source holds these as a separate data set.
Procedure: as §1, §3
Assay [10] has as its target T6, human CD33 expressed on cells (human, UniProt P20138 18-364).
T6 construct: endogenous CD33 of human AML cell lines and blood monocytes; also called cell-expressed CD33 (Molm-13, Mv4-11, monocytes)
As to the kind of experiment: flow cytometry on Molm-13 cells, fluorophore-conjugated anti-human IgG secondary antibody, MFI as fold over background (FOB). For orientation: A flow cytometer gives signals particle by particle.
Procedure: Binding of the TriNKET was detected using a fluorophore conjugated anti-human IgG secondary antibody. Cells were analyzed by flow cytometry, binding MFI to cell expressed CD33 was normalized to secondary antibody controls to obtain fold over background values.

This is an account of results in US20220380459A1 (DRAGONFLY THERAPEUTICS, published 2022).

Numbering of substitutions follows the chain as printed. Like-named read-outs stand apart in the source and are kept apart here.

The Kd is the concentration at which binding is half-saturated. By koff is commonly meant the first-order rate constant of dissociation. One may read the kon as the second-order rate constant of association.

B1: ADI-10164 Fab (Fab, V domains shown)
VH: QVQLQESGPGLVKPSETLSLTCAVSGYSISSGYYWGWIRQPPGKGLEWIGSIYHSGSTNYNPSLKSRVTISVDTSKNQFSLKLSSVTAADTAVYYCARLPPWFGFSYFDLWGRGTLVTVSS
VL: EIVLTQSPATLSLSPGERATLSCRASQSVSSYLAWYQQKPGQAPRLLIYDASNRATGIPARFSGSGSGTDFTLTISSLEPEDFAVYYCQQVDNYPPTFGGGTKVEIK
notes: Fab fragment; also called Ab18
With B1, the binding result was “no binding” in assay [1] and “no binding (tested: 100 nM)” in assay [3]. The equilibrium dissociation constant (Kd) worked out at 31.5 nM in assay [2]; 31.5 nM in [4]; 286 nM in assay [5]; 286 nM in assay [6]; 143 nM in assay [7]; 31.5 nM in assay [8]. The molecule also gave an equilibrium dissociation constant (Kd) in assay [9] of 31.5 nM. For the same molecule, the off-rate constant (koff) was 0.0101 s⁻¹ in assay [2]; 0.0101 s⁻¹ in [4]; 0.37 s⁻¹ in assay [5]; 0.37 s⁻¹ in [6]; 0.116 s⁻¹ in [7]; 0.0101 s⁻¹ in [8]. The koff in assay [9] came out at 0.0101 s⁻¹. Also, the on-rate (kon) in assay [2] turned out to be 319000 M⁻¹ s⁻¹; in assay [4], 319000 M⁻¹ s⁻¹; in [5], 1.29e+06 M⁻¹ s⁻¹; in assay [6], 1.29e+06 M⁻¹ s⁻¹; in assay [7], 811000 M⁻¹ s⁻¹; in assay [8] it was 319000 M⁻¹ s⁻¹.

B2: ADI-10161 Fab (Fab, V domains shown)
VH: EVQLVESGGGLVQPGGSLRLSCAASGFTFSSYWMSWVRQAPGKGLEWVANINQDGSEKYYVDSVKGRFTISRDNAKNSLYLQMNSLRAEDTAVYYCAREGGDSWYHAFDIWGQGTMVTVSS
VL: DIQMTQSPSSVSASVGDRVTITCRASQGISSWLAWYQQKPGKAPKLLIYAASNLQSGVPSRFSGSGSGTDFTLTISSLQPEDFATYYCQQKLSLPLTFGGGTKVEIK
notes: Fab fragment; also called Ab16
With B2, the binding result in assay [1] was “no binding”; in assay [3] it was “no binding (tested: 100 nM)”. The Kd was 20.6 nM in assay [2]; 20.6 nM in assay [4]; 95.8 nM in [5]; 95.8 nM in [6]; 85.6 nM in assay [7]; 20.6 nM in assay [8]. This molecule also showed a Kd in assay [9] of 20.6 nM. Moreover, the koff in assay [2] turned out to be 0.0118 s⁻¹; in assay [4] it was 0.0118 s⁻¹; in [5] it was 0.124 s⁻¹; in assay [6], 0.124 s⁻¹; in [7] it was 0.196 s⁻¹; in assay [8] it was 0.0118 s⁻¹. In [9], this molecule gave a koff of 0.0118 s⁻¹. For the same molecule, the kon in assay [2] was found to be 574000 M⁻¹ s⁻¹; in [4], 574000 M⁻¹ s⁻¹; in assay [5] it was 1.29e+06 M⁻¹ s⁻¹; in [6], 1.29e+06 M⁻¹ s⁻¹; in assay [7] it was 2.29e+06 M⁻¹ s⁻¹; in assay [8], 574000 M⁻¹ s⁻¹.

B3: ADI-11839 Fab (Fab, V domains shown)
VH: QVQLVQSGAEVKKPGASVKVSCKASGYTFSNYYMHWVRQAPGQGLEWMGWINPFSGGTRYAQKFQGRVTMTRDTSTSTVYMELSSLRSEDTAVYYCARDVGSSAYYYMDVWGKGTTVTVSS
VL: B2 VL with R24E, Q27K, N53D, K91A, L92F, S93L, L94F, L96P
notes: Fab fragment; also called Ab28
B3: the binding result in assay [1] is recorded as “no binding”; in assay [3], “no binding (tested: 100 nM)”. Further, the Kd stood at 18.6 nM in assay [2]; 18.6 nM in assay [4]; 44.6 nM in assay [5]; 44.6 nM in assay [6]; 70.3 nM in [7]; 18.6 nM in assay [8]. Also, in [9], the affinity, expressed as Kd, was 18.6 nM. For the same molecule, the koff in assay [2] came out at 0.0162 s⁻¹; in [4], 0.0162 s⁻¹; in [5], 0.41 s⁻¹; in assay [6] it was 0.41 s⁻¹; in [7], 0.116 s⁻¹; in [8], 0.0162 s⁻¹. The same molecule returned a koff in assay [9] of 0.0162 s⁻¹. For the same molecule, the on-rate constant (kon) in [2] is 874000 M⁻¹ s⁻¹; in assay [4], 874000 M⁻¹ s⁻¹; in assay [5], 9.19e+06 M⁻¹ s⁻¹; in assay [6] it was 9.19e+06 M⁻¹ s⁻¹; in [7], 1.65e+06 M⁻¹ s⁻¹; in assay [8] it was 874000 M⁻¹ s⁻¹.

B4: A40.I07 (bispecific antibody)
NKG2D-binding VH: QVQLQQWGAGLLKPSETLSLTCAVYGGSFSGYYWSWIRQPPGKGLEWIGEIDHSGSTNYNPSLKSRVTISVDTSKNQFSLKLSSVTAADTAVYYCARARGPWSFDPWGQGTLVTVSS
NKG2D-binding VL: DIQMTQSPSTLSASVGDRVTITCRASQSIGSWLAWYQQKPGKAPKLLIYKASSLESGVPSRFSGSGSGTEFTLTISSLQPDDFATYYCQQYHSFYTFGGGTKVEIK
CD33-binding VH: EVQLVESGGGLVQPGGSLRLSCAASGFTFGSYWMSWVRQAPGKGLEWVATIKQDGSEKSYVDSVKGRFTISRDNAKNSLYLQMNSLRAEDTAVYYCARPLNAGELDVWGQGTMVTVSS
CD33-binding VL: DIQMTQSPSTLSASVGDRVTITCRASQSISSWLAWYQQKPGKAPKLLIYEASSLESGVPSRFSGSGSGTEFTLTISSLQPDDFATYYCQQSQSYPPITFGGGTKVEIK
For the molecule B4, the binding result in [10] is on record as “binds”.

B5: A40.I35 (bispecific antibody)
NKG2D-binding VH: B4 NKG2D-binding VH
NKG2D-binding VL: B4 NKG2D-binding VL
CD33-binding VH: QLQLQESGPGLVKPSETLSLTCTVSGGSISSTDYYWGWIRQPPGKGLEWIGSIGYSGTYYNPSLKSRVTISVDTSKNQFSLKLSSVTAADTAVYYCARETAHDVHGMDVWGQGTTVTVSS
CD33-binding VL: EIVLTQSPATLSLSPGERATLSCRASHSVYSYLAWYQQKPGQAPRLLIYDASNRATGIPARFSGSGSGTDFTLTISSLEPEDFAVYYCQQYDNLPTFGGGTKVEIK
Take B5: the binding result in assay [10] is on record as “binds”.

B6: F47.I07 (bispecific antibody)
NKG2D-binding VH: B4 NKG2D-binding VH
NKG2D-binding VL: B4 NKG2D-binding VL with G30S, H92D, S93T, Y95I
CD33-binding VH: B4 CD33-binding VH
CD33-binding VL: B4 CD33-binding VL
Take B6: the binding result in [10] was “binds”.

B7: F47.I35 (bispecific antibody)
NKG2D-binding VH: B4 NKG2D-binding VH
NKG2D-binding VL: B4 NKG2D-binding VL with G30S, H92D, S93T, Y95I
CD33-binding VH: B5 CD33-binding VH
CD33-binding VL: B5 CD33-binding VL
With B7, the binding result in [10] is listed as “binds”.

B8: ADI-11825 Fab (Fab, V domains shown)
VH: EVQLVESGGGLVQPGGSLRLSCAASGFTFGGYWMSWVRQAPGKGLEWVANINQDGSEEYYVDSVKGRFTISRDNAKNSLYLQMNSLRAEDTAVYYCAREANYYGNVGDDYWGQGTLVTVSS
VL: DIQMTQSPSSLSASVGDRVTITCRASQSIYNYLNWYQQKPGKAPKLLIYAASNLHSGVPSRFSGSGSGTDFTLTISSLQPEDFATYYCQQAFHVPITFGGGTKVEIK
notes: Fab fragment; also called Ab25
Turning to B8, the binding result is listed as “no binding” in [1] and “no binding (tested: 100 nM)” in assay [3]. For the same molecule, the dissociation constant (Kd) worked out at 1.78 nM in assay [2]; 1.78 nM in assay [4]; 3.95 nM in [5]; 3.95 nM in assay [6]; 3.11 nM in assay [7]; 1.78 nM in assay [8]. In addition, the dissociation constant Kd in assay [9] was determined as 1.78 nM. The koff in assay [2] is 0.0038 s⁻¹; in assay [4], 0.0038 s⁻¹; in assay [5], 0.0195 s⁻¹; in [6], 0.0195 s⁻¹; in assay [7], 0.018 s⁻¹; in [8], 0.0038 s⁻¹. Moreover, the koff in [9] was 0.0038 s⁻¹. The kon in assay [2] was determined as 2.13e+06 M⁻¹ s⁻¹; in assay [4], 2.13e+06 M⁻¹ s⁻¹; in [5] it was 4.93e+06 M⁻¹ s⁻¹; in assay [6], 4.93e+06 M⁻¹ s⁻¹; in assay [7], 5.78e+06 M⁻¹ s⁻¹; in assay [8], 2.13e+06 M⁻¹ s⁻¹.

B9: ADI-11828 Fab (Fab, V domains shown)
VH: EVQLVESGGGLVQPGGSLRLSCAASGFTFSSYWMSWVRQAPGKGLEWVANINQDGSEVYYVDSVKGRFTISRDNAKNSLYLQMNSLRAEDTAVYYCARDVGPGIAYQGHFDYWGQGTLVTVSS
VL: B8 VL with N31Y, N53S, L54R, H55Q, A91V, F92Y, H93D, V94T, I96L
notes: Fab fragment; also called Ab27
Consider B9, for which, in assay [1], the binding result was “no binding”. Besides, the dissociation constant Kd was found to be 2.67 nM in [2]; 53.5 nM in [3]; 2.67 nM in assay [4]; 6.3 nM in [5]; 6.3 nM in [6]; 4.87 nM in assay [7]. The Kd in assay [8] and in [9] was 2.67 nM throughout. The koff is 0.00351 s⁻¹ in [2]; 0.0548 s⁻¹ in assay [3]; 0.00351 s⁻¹ in assay [4]; 0.0213 s⁻¹ in [5]; 0.0213 s⁻¹ in assay [6]; 0.0189 s⁻¹ in assay [7]. Besides, the off-rate constant (koff) in assay [8] and in [9] was 0.00351 s⁻¹ in each case. Moreover, the kon was found to be 1.32e+06 M⁻¹ s⁻¹ in [2]; 1.03e+06 M⁻¹ s⁻¹ in [3]; 1.32e+06 M⁻¹ s⁻¹ in assay [4]; 3.37e+06 M⁻¹ s⁻¹ in assay [5]; 3.37e+06 M⁻¹ s⁻¹ in [6]; 3.59e+06 M⁻¹ s⁻¹ in assay [7]. In addition, the kon in assay [8] came out at 1.32e+06 M⁻¹ s⁻¹.
